PMC2873993, “Comparative Therapeutic Effects of Velaglucerase Alfa and Imiglucerase in a Gaucher Disease Mouse Model” (PLoS ONE, 2010)
Residue numbers refer to the chain shown, from its start.

What was measured:
[1] = Tissue GCase activity, CRIM and CRIM-SA (liver, spleen, lung) after i.v. bolus; conditions: for Recovery of injected activity in liver / Recovery of injected activity in lung / Recovery of injected activity in spleen: 60 U/kg bolus, % ± SE; for peak liver activity relative to WT: 20 min
[2] = mouse, in vivo, iv
[3] = 5-wk 9 V/null mice, peak 20 min
[4] = 5-wk 9 V/null mice, 60 U/kg i.v.
[5] = 20-wk 9 V/null mice, peak 20 min
[6] = 20-wk 9 V/null mice, 60 U/kg i.v.

B1: velaglucerase alfa (protein)
chain: ARPCIPKSFGYSSVVCVCNATYCDSFDPPTFPALGTFSRYESTRSGRRMELSMGPIQANHTGTGLLLTLQPEQKFQKVKGFGGAMTDAAALNILALSPPAQNLLLKSYFSEEGIGYNIIRVPMASCDFSIRTYTYADTPDDFQLHNFSLPEEDTKLKIPLIHRALQLAQRPVSLLASPWTSPTWLKTNGAVNGKGSLKGQPGDIYHQTWARYFVKFLDAYAEHKLQFWAVTAENEPSAGLLSGYPFQCLGFTPEHQRDFIARDLGPTLANSTHHNVRLLMLDDQRLLLPHWAKVVLTDPEAAKYVHGIAVHWYLDFLAPAKATLGETHRLFPNTMLFASEACVGSKFWEQSVRLGSWDRGMQYSHSIITNLLYHVVGWTDWNLALNPEGGPNWVRNFVDSPIIVDITKDTFYKQPMFYHLGHFSKFIPEGSQRVGLVASQKNDLDAVALMHPDGSAVVVVLNRSSKDVPLTIKDPAVGFLETISPGYSIHTYLWRRQ
modifications: N-linked oligosaccharides with higher α-mannosyl content (predominant number of mannoses is 9)
Recovery of injected activity in liver [1, 3]: 57.53±1.35% | Recovery of injected activity in lung [1, 3]: 0.1±0.01% | Recovery of injected activity in spleen ([1]; 5-wk 9 V/null mice, peak 40 min): 1.86±0.06% | drop of liver activity within 40 min [1, 4]: about 60% | liver GCase activity by 42 h [1, 4]: 13–18 % of WT | peak spleen activity lower than in 20-wk mice [1, 4]: 2- to 3 fold | splenic CRIM-SA [1, 4]: 0.2–0.8×10^6 nmoles/h/mg enzyme protein | time liver activity remained at ≥WT level [1, 4]: 70 to 80 min | t½ of CRIM levels in spleen [1, 4]: ~2 h | t½ of activity disappearance in liver [1, 4]: about 60 min | peak liver activity relative to WT [1, 4]: ~2.5 fold | Recovery of injected activity in liver [1, 5]: 60.36±2.01% | Recovery of injected activity in lung [1, 5]: 0.04±0.01% | Recovery of injected activity in spleen [1, 5]: 2.62±0.08% | decrease of liver GCase activity within 40 min [1, 6]: ~30% | decrease of spleen enzyme activity by 40 min [1, 6]: ~40% | liver GCase activity by 42 h [1, 6]: 13–15 % of WT | time liver activity remained at or above WT levels [1, 6]: 3 h | time spleen activity remained at ≥WT levels [1, 6]: ~3.5 h | t½ of CRIM disappearance in liver [1, 6]: 1.5 to 1.83 h | t½ of GCase activity disappearance in liver [1, 6]: ~1.67 h | t½ of GCase protein disappearance in spleen [1, 6]: 1.0 to 1.5 h | peak liver activity relative to WT [1, 6]: 2.5- to 3.5 fold | peak spleen activity relative to WT ([1]; 20-wk 9 V/null mice, 20 min post-injection, 60 U/kg i.v.): 3- to 4.5 fold | time liver activity remained at ≥WT level ([1]; 20-wk 9 V/null mice, as restated): ~180 min | enzyme recovered in spleens and lungs ([1]; after bolus i.v. injections, abstract): < 5% | injected enzyme recovered from the liver ([1]; intravenous bolus, discussion): ≥ 60%

B2: imiglucerase (protein)
chain: B1 chain with R495H
modifications: short N-linked oligosaccharide chains with ~3 exposed α-mannosyl residues
serum activity by 20 min post-injection [2]: < 10 % of the 2-min values | t½ of GCase CRIM disappearance in serum [2]: ~0.217 h | t½ of clearance of GCase activity in serum [2]: 8 to 11 min | catalytic value (CRIM-SA) of intact enzyme remaining in serum by 20 min ([2]; 20 min): < 10 % of its original catalytic value
